Results published in publication PMC10897913 (iScience, 2024).

Target: T1, GST-DUB3 (human, UniProt Q6R6M4 1-530)
T1 sequence (looked up): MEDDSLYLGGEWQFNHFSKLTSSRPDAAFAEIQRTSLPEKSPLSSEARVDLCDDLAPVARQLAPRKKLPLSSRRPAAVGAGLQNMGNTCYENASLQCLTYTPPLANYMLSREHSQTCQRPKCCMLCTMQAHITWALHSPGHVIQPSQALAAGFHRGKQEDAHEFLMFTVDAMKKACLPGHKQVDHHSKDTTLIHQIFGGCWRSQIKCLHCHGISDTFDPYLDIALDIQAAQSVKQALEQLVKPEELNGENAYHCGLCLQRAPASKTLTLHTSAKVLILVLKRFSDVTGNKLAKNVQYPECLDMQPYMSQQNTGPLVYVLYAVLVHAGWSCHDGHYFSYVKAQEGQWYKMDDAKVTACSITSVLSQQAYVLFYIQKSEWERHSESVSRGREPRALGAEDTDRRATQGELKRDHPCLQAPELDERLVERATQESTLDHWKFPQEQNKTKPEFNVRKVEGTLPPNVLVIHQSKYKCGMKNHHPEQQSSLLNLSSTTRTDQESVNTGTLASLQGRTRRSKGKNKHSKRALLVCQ
Experiment: pull-down

- binding result: binds
B1: MAGEA3-His (natural protein, human, UniProt P43357 1-314, looked up)
chain: MPLEQRSQHCKPEEGLEARGEALGLVGAQAPATEEQEAASSSSTLVEVTLGEVPAAESPDPPQSPQGASSLPTTMNYPLWSQSYEDSSNQEEEGPSTFPDLESEFQAALSRKVAELVHFLLLKYRAREPVTKAEMLGSVVGNWQYFFPVIFSKASSSLQLVFGIELMEVDPIGHLYIFATCLGLSYDGLLGDNQIMPKAGLLIIVLAIIAREGDCAPEEKIWEELSVLEVFEGREDSILGDPKKLLTQHFVQENYLEYRQVPGSDPACYEFLWGPRALVETSYVKVLHHMVKISGGPHISYPPLHEWVLREGEE
